Data published in patent US20220396612A1 (UNIVERSIT DE TOURS, published 2022).

Tests used:
[1] = molecular target: T1, virus-like particles (VLPs) of BK polyomavirus VP-1 protein, serotype Ia (BK virus (BKPyV), serotype Ia, UniProt P03088 1-361); experiment: ELISA on coated VLP; supernatant 1/40
T1 construct: self-assembled native VLPs coated on ELISA plates; also called VLP Ia; BKV VP-1, serotype Ia
T1 chain: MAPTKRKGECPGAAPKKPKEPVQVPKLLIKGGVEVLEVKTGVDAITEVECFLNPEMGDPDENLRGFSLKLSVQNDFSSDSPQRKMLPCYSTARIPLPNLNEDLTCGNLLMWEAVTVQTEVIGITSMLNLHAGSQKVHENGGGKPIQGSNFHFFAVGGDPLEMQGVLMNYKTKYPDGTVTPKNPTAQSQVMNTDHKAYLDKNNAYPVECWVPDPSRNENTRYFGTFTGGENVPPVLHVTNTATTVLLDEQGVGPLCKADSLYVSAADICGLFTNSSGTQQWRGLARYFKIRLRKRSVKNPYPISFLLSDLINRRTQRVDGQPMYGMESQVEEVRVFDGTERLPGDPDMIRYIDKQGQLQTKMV
Protocol: (§1) To do this, the VLPs produced were deposited at a concentration of 1 μg/mL in PBS and incubated overnight at +4° C. The wells were then blocked for 1 h at +37° C. with a PBS/FCS (phosphate-buffered saline/fetal calf serum) mixture. After dilution in a dilution buffer containing FCS, PBS and Tween® 20, the various hybridoma culture supernatants were added for 1 h at +37° C. The wells were washed four times in a row with Wash Buffer and a secondary anti-mouse antibody coupled to peroxidase was added to the 1:2000 dilution for 1 h at +37° C. The wells were washed four more times and the substrate (OPD (ortho phenylene diamine)+H₂O₂) was added for 30 min at room temperature. A stop solution (H₂SO₄ 4N) was then added and each well was read by measuring the absorbance at 492 nm with a spectrophotometer. The value obtained for the average of the control wells (PBS in the first step) is subtracted from the optical density values obtained for each well.

[2] = molecular target: T2, virus-like particles (VLPs) of BK polyomavirus VP-1 protein, serotype Ib2 (BK virus (BKPyV), serotype Ib2, PA …, UniProt P03088 1-362); experiment: ELISA on coated VLP; supernatant 1/40
T2 construct: native VLPs; also the immunogen; also called VLP Ib2; BK Ib2
T2 chain: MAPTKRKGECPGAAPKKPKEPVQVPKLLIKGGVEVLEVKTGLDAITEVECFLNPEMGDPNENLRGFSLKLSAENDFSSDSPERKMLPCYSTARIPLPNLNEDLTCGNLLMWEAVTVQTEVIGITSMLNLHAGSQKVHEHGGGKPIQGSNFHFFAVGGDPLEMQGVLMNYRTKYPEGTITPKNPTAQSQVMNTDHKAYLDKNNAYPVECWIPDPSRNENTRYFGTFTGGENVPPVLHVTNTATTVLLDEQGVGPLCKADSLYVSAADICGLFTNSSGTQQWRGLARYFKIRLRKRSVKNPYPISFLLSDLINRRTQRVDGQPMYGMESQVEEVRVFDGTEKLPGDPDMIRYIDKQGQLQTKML
Protocol: as §1

[3] = molecular target: T3, virus-like particles (VLPs) of BK polyomavirus VP-1 protein, serotype II (BK virus (BKPyV), serotype II, UniProt P14996 1-362); experiment: ELISA on coated VLP; supernatant 1/40
T3 construct: native VLPs; also called VLP II
T3 chain: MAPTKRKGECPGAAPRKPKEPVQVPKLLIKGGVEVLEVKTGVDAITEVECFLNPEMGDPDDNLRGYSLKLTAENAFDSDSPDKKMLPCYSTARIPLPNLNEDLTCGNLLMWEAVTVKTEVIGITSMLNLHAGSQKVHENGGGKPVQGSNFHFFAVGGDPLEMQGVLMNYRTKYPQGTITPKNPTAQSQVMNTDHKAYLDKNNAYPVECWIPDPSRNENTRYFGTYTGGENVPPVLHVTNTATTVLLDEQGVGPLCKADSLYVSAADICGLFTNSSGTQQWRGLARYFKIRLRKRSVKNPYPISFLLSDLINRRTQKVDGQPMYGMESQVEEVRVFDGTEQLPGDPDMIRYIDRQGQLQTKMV
Protocol: as §1

[4] = molecular target: T4, virus-like particles (VLPs) of BK polyomavirus VP-1 protein, serotype IV (BK virus (BKPyV), serotype IV, UniProt P14996 1-362); experiment: ELISA on coated VLP; supernatant 1/40
T4 construct: native VLPs; also called VLP IV
T4 chain: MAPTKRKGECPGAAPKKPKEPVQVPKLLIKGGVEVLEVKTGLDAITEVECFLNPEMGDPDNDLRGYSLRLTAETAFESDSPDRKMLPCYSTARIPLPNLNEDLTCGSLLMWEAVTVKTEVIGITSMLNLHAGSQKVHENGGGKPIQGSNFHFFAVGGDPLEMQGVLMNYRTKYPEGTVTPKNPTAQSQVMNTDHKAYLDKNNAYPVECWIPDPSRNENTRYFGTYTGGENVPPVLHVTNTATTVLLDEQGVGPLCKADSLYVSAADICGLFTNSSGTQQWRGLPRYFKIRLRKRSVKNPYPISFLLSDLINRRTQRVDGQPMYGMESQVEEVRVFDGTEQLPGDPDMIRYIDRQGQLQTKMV
Protocol: as §1

[5] = molecular target: T1, virus-like particles (VLPs) of BK …; experiment: ELISA on coated VLP; supernatant 1/640
Protocol: as §1

[6] = molecular target: T2, virus-like particles (VLPs) of BK …; experiment: ELISA on coated VLP; supernatant 1/640
Protocol: as §1

[7] = molecular target: T3, virus-like particles (VLPs) of BK …; experiment: ELISA on coated VLP; supernatant 1/640
Protocol: as §1

[8] = molecular target: T4, virus-like particles (VLPs) of BK …; experiment: ELISA on coated VLP; supernatant 1/640
Protocol: as §1

[9] = molecular target: T1, virus-like particles (VLPs) of BK …; experiment: ELISA on coated VLP; supernatant 1/2 560
Protocol: as §1

[10] = molecular target: T2, virus-like particles (VLPs) of BK …; experiment: ELISA on coated VLP; supernatant 1/2 560
Protocol: as §1

[11] = molecular target: T3, virus-like particles (VLPs) of BK …; experiment: ELISA on coated VLP; supernatant 1/2 560
Protocol: as §1

[12] = molecular target: T4, virus-like particles (VLPs) of BK …; experiment: ELISA on coated VLP; supernatant 1/2 560
Protocol: as §1

[13] = molecular target: T4, virus-like particles (VLPs) of BK …; experiment: ELISA on coated VLP; supernatant 1/20 480
Protocol: as §1

Binder | OD 492 nm [1] [OD] | OD 492 nm [2] [OD] | OD 492 nm [3] [OD] | OD 492 nm [4] [OD] | OD 492 nm [5] [OD] | OD 492 nm [6] [OD] | OD 492 nm [7] [OD] | OD 492 nm [8] [OD] | OD 492 nm [9] [OD] | OD 492 nm [10] [OD] | OD 492 nm [11] [OD] | OD 492 nm [12] [OD] | OD 492 nm [13] [OD]
monoclonal antibody ‘F6’ secreted by clone BK6A2F6 (antibody) heavy: EVQLQQSGPELVKPGASVKISCKASGYSFTGYFMNWVKQSHGKSLEWIGRINPYNGDTFYNQKFKGKATLTVDKSSSTAHMELLSLTSEDSAVYYCGSYYYGDYFDYWGQGTTLTVSSAKTTPPSVYPLAPGSAAQTNSMVTLGCLVKGYFPEPVTVTWNSGSLSSGVHTFPAVLQSDLYTLSSSVTVPSSTWPSETVTCNVAHPASSTKVDKKIVPRDCGCKPCICTVPEVSSVFIFPPKPKDVLTITLTPKVTCVVVDISKDDPEVQFSWFVDDVEVHTAQTQPREEQFNSTFRSVSELPIMHQDWLNGKEFKCRVNSAAFPAPIEKTISKTKGRPKAPQVYTIPPPKEQMAKDKVSLTCMITDFFPEDITVEWQWNGQPAENYKNTQPIMDTDGSYFVYSKLNVQKSNWEAGNTFTCSVLHEGLHNHHTEKSLSHSPGK light: […] | 3.16 | 1.03 | 0.9 | 3.19 | 3.07 | 0.19 | 0.14 | 2.86 | 1.06 | 0.09 | 0.07 | 1.28 | 0.26
monoclonal antibody ‘H6’ secreted by clone BK6A2H6 (antibody, V domains shown) VH: EVQLQQSGPELVKPGASVKISCKASGYSFTGYFMNWVKQSHGKSLEWIGRINPYNGDTFYNQKFKGKATLTVDKSSSTAHMELLSLTSEDSAVYYCGSYYYGDYFDYWGQGTTLTVSS VL: SIVMTQIPKFLLVSEGDRVTITCKASQSVSNDVAWYQQKSGQSPKLLIYYASNRYTGVPDRFTGSGYGTDFTFTISTVQAEDLAVYFCQQDYSSPLTFGAGTKLELKR | 3.18 | 0.67 | 0.44 | 3.38 | 2.49 | 0.17 | 0.08 | 1.59 | 0.46 | 0.1 | 0.06 | 0.54 | 0.12
